According to paper PMC6179186, “Novel RNA aptamers targeting gastrointestinal cancer biomarkers CEA, CA50 and CA72-4 with superior affinity and specificity”:

Legend:
[1] = system: CA50 (cancer antigen 50) (human); test: fluorescence titration; conditions: 5 mM MgCl2; yeast tRNA competitor 1 ug/ul; RSB-100: 10 mM Tris-HCl pH 7.5, 5 mM MgCl2, 100 mM NaCl, 0.01% NP-40, yeast tRNA 1 ug/ul, room temperature, 10 min; 1 pmol RNA, antigen 0-200 nM
[2] = system: CA72-4 (cancer antigen 72-4) (human); test: fluorescence titration; conditions: 5 mM MgCl2; yeast tRNA competitor 1 ug/ul; RSB-100: 10 mM Tris-HCl pH 7.5, 5 mM MgCl2, 100 mM NaCl, 0.01% NP-40, yeast tRNA 1 ug/ul, room temperature, 10 min; 1 pmol RNA, antigen 0-200 nM
[3] = target: CEA (carcinoembryonic antigen) (human, UniProt P06731 35-685); test: fluorescence titration; 5 mM MgCl2; yeast tRNA competitor 1 ug/ul; RSB-100: 10 mM Tris-HCl pH 7.5, 5 mM MgCl2, 100 mM NaCl, 0.01% NP-40, yeast tRNA 1 ug/ul, room temperature, 10 min; 1 pmol RNA, antigen 0-200 nM; conditions: protein: commercial; label: Alexa Fluor 488 (ULS); mfold-predicted secondary structure
CEA (carcinoembryonic antigen), sequence (P06731 35-685): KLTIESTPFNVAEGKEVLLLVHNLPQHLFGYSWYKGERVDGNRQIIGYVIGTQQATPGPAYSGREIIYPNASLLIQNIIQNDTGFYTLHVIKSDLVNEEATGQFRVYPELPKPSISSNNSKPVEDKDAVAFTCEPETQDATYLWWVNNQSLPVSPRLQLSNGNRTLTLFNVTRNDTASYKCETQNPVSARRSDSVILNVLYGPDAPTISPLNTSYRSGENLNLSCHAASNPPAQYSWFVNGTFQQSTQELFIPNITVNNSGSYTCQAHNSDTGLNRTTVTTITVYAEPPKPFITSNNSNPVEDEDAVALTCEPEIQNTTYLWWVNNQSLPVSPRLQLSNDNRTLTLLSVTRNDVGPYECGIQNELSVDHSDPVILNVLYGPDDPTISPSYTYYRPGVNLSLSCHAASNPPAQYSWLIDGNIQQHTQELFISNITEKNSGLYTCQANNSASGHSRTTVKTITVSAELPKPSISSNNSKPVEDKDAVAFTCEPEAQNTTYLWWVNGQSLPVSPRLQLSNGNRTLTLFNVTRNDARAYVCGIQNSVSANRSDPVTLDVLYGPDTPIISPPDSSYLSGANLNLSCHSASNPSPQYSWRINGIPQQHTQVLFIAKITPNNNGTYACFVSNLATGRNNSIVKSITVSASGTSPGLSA

| Molecule | Kd [1] | Kd [2] | further results |
| --- | --- | --- | --- |
| GGGUCGUGUCGGAUCCAGCUCGAAAGUGGGCUGGCGAUGUGUCCCGAAGCUUCUAAGGUAACGAU [CA50 A02] | 30.7 nM |  |  |
| GGGUCGUGUCGGAUCCCCCAAAAAGGAUUGGGGCGUCUGCAUGACCAAGCUUCUAAGGUAACGAU [CA72-4 A02] |  | 71.2 nM |  |
| GGGUCGUGUCGGAUCCGUGAGUUUUUCGCGGCGAAGACAAGGCUCGAAGCUUCUAAGGUAACGAU [CA50 A01] | 38 nM |  |  |
| GGGUCGUGUCGGAUCCUGCGAAGGGGGGCAGAGGUUUGACGCGAGAAAGCUUCUAAGGUAACGAU [CA72-4 A01] |  | 52.7 nM |  |
| CEA A02 (structured_RNA) RNA: GGGUCGUGUCGGAUCCAACGGCAUGACCUAACCUGGAGGCGCAUCAAAGCUUCUAAGGUAACGAU |  |  | Kd [3]: 156 nM |
